{"source": "paper PMC11508043", "about": "(Nature, 2023)", "biological_target": "Recombinant wild-type human histone H1.0 (human)", "assay": "turbidity"}
{"binder": "ProTα (unlabelled) (natural protein, human) GPMSDAAVDTSSEITTKDLKEKKEVVEEAENGRDAPANGNANEENGEQEADNEVDEEEEEGGEEEEEEEEGDGEEEDGDEDEEAESATGKRAAEDDEDDDVDTKKQKTDEDD", "values": [{"measurement": "ProTα:H1 ratio at maximum phase separation", "value": "1.2 ProTα:H1"}]}
